Test results: patent US20240392003A1 (NUMAB THERAPEUTICS, published 2024)
Positions count from the first letter of the chain named. Read-outs that look alike come from different tables or passages of the source. Each block holds one binder with its values, some of them ahead of it.

Experiments:
[1] = biological target: T1, human ROR1 expressed on cells (human, UniProt Q01973 30-937); experiment: flow cytometry, MDA-MB-231 cells, 1 mg/ml hSA
T1 construct: whole, on cells; One molecule for cell-surface ROR1 on all cell lines; the cell line is named under assay; also called hROR1; plasma membrane human ROR1

[2] = biological target: T2, recombinant human CD3 epsilon extra-cellular domain protein (His-Tag, SinoBiological) (human, UniProt P07766 23-126); experiment: SPR; hCD3ε immobilized, two-state fit (kd1)
T2 construct: extracellular domain; Bought; also called hCD3ε; human CD3ε; not shown: His tag

[3] = biological target: T2, recombinant human CD3 epsilon …; experiment: SPR; hCD3ε immobilized, two-state fit (Ka1)
[4] = biological target: T2, recombinant human CD3 epsilon …; experiment: SPR; hCD3ε immobilized, two-state fit
[5] = biological target: T1, human ROR1 expressed on cells; experiment: cell-based or functional assay
[6] = biological target: T3, recombinant human ROR1 protein (Fc-Tag, Acro Biosystems RO1-H5250) (human, UniProt Q01973 30-406); experiment: SPR; hROR1-Fc immobilized (Avidity)
T3 construct: Bought; also called hROR1; recombinant human ROR1 ECD; not shown: Fc tag

[7] = biological target: T4, human ROR1 (Peprotech 160-054) (human, UniProt Q01973 30-406); experiment: SPR; MATCH4 captured, hROR1 analyte (Affinity)
T4 construct: Bought, used as analyte; also called hROR1; recombinant human ROR1 protein

[8] = biological target: T1, human ROR1 expressed on cells; experiment: flow cytometry, JIMT-1 cells (ROR1-positive)
[9] = biological target: T1, human ROR1 expressed on cells; experiment: cell-based or functional assay; remark: listed apart in the source
[10] = biological target: T1, human ROR1 expressed on cells; experiment: cell-based or functional assay; remark: listed apart in the source
[11] = biological target: T5, human serum albumin (Sigma-Aldrich A3782) (human, UniProt P02768 25-609); experiment: SPR; hSA immobilized, pH 5.5
T5 construct: also called hSA; HSA

EC50 [1]: 1.23 nM | Rel. maximum binding (MFIMATCH4/MFIPRO2213) [1]: 2.76 | rel. EC50 (EC50, PRO2213/EC50, MATCH4) [1]: 0.56 | koff [2]: 0.0058 s⁻¹ | kon [3]: 450000 M⁻¹ s⁻¹ | Ka2 [4]: 0.0055 s⁻¹ | Kd [4]: 5.7 nM | Kd2 [4]: 0.0043 s⁻¹ | Avg. % max. CD8 T cell act. (JIMT-1) [5]: 22.5% | Avg. % max. CD8 T cell act. (MDA-MB-231) [5]: 68.8% | Avg. % max. CD8 T cell act. (SKOV3) [5]: 63.7% | Avg. EC50 (nM) CD8 T cell act. (JIMT-1) [5]: 0.09 nM | Avg. EC50 (nM) CD8 T cell act. (MDA-MB-231) [5]: 0.013 nM | Avg. EC50 (nM) CD8 T cell act. (SKOV3) [5]: 0.034 nM | Kd [6]: 0.136 nM | koff [6]: 6.15e-05 s⁻¹ | kon [6]: 453000 M⁻¹ s⁻¹ | Kd [7]: 2.9 nM | koff [7]: 0.00017 s⁻¹ | kon [7]: 59000 M⁻¹ s⁻¹ | EC50 (read off the curve) [8]: 1 to 2 nM | Avg. % max. lysis (JIMT-1) [9]: 38.6% | Avg. % max. lysis (MDA-MB-231) [9]: 52.2% | Avg. % max. lysis (SKOV3) [9]: 51.8% | Avg. EC50 (nM) CD8 T cell act. (MDA-MB-231) [9]: 0.013 nM | Avg. EC50 (nM) CD8 T cell act. (SKOV3) [9]: 0.034 nM | Avg. % max. CD4 T cell act. (JIMT-1) [10]: 35.3% | Avg. % max. CD4 T cell act. (MDA-MB-231) [10]: 79.3% | Avg. % max. CD4 T cell act. (SKOV3) [10]: 78.3% | Avg. EC50 (nM) CD4 T cell act. (JIMT-1) [10]: 0.11 nM | Avg. EC50 (nM) CD4 T cell act. (MDA-MB-231) [10]: 0.007 nM | Avg. EC50 (nM) CD4 T cell act. (SKOV3) [10]: 0.02 nM
B1: PRO2590 (bispecific antibody)
chain 1: DVQMTQSPSSLSASVGDRVTITCRASENIYSGLAWYQQKPGKPPKLLIYRASTLASGVSSRFSGSGSGTDFTLTISSLQPEDFATYYCQGGYYSSSSTYIAFGCGTKVTVLGGGGGSGGGGSGGGGSGGGGSQSQVVESGGGLVQPGGSLRLSCAVSGFDLSSYAVSWVRQAPGKCLEWIGIIYPRANTYYASWAKGRFTISKDNSKNTVYLQMNSLRAEDTAVYFCARDRYDSGAYLYTTYFNLWGQGTLVTVSSGGGGSGGGGSAFELTQSPSSLSASVGDRVTITCQASESINSRLAWYQQKPGQPPKLLIYDASDLTSGVPSRFSGSGSGTDFTLTISSLQPEDFATYYCQGYGGSSTTTFGCGTKLTVLGGGSGGSDIQMTQSPSSLSASVGDRVTITCQSSQSVFSNNYLAWFQQKPGQSPKRLIYSASTLASGVPSRFSGSGSGTDFTLTISSLQPEDFATYYCLGSYACSSADCYVFGTGTKVTVLG
chain 2: DVQMTQSPSSLSASVGDRVTITCRASENIYSGLAWYQQKPGKPPKLLIYRASTLASGVSSRFSGSGSGTDFTLTISSLQPEDFATYYCQGGYYSSSSTYIAFGCGTKVTVLGGGGGSGGGGSGGGGSGGGGSQSQVVESGGGLVQPGGSLRLSCAVSGFDLSSYAVSWVRQAPGKCLEWIGIIYPRANTYYASWAKGRFTISKDNSKNTVYLQMNSLRAEDTAVYFCARDRYDSGAYLYTTYFNLWGQGTLVTVSSGGGGSGGGGSEVQLVESGGGLVQPGGSLRLSCAASGFSLSSYDMSWVRQAPGKGLAWIGASYASGPTYYASWAKGRFTISRDNSKNTVYLQMNSLRAEDTATYFCARGGWTGTSHSNIWGQGTLVTVSSGGGSGGGSGGGSGEVQLVESGGGLVQPGGSLRLSCAASGFSLSSYAMNWVRQAPGKCLEWIGHINAGDIAYYATWAKGRFTISRDNSKNTVYLQMNSLRAEDTAVYFCARGAGGFSTGPFKLWGQGTLVTVSS
notes: heterodimeric MATCH4, bivalent for ROR1, monovalent for CD3 and hSA; also called MATCH4 with 55-38-D07-sc06 / 19-04-A10-sc06 / 28-21-D09-sc04 / 55-38-D07-sc06
Avg. EC50 (nM) Cytotoxicity (JIMT-1) [9]: 0.13 nM | Avg. EC50 (nM) Cytotoxicity (MDA-MB-231) [9]: 0.016 nM | Avg. EC50 (nM) Cytotoxicity (SKOV3) [9]: 0.049 nM

EC50 [1]: 0.85 nM | Rel. maximum binding (MFIMATCH4/MFIPRO2213) [1]: 2.68 | rel. EC50 (EC50, PRO2213/EC50, MATCH4) [1]: 0.39 | koff [2]: 0.0048 s⁻¹ | kon [3]: 820000 M⁻¹ s⁻¹ | Ka2 [4]: 0.0054 s⁻¹ | Kd [4]: 2.7 nM | Kd2 [4]: 0.0047 s⁻¹ | Kd [6]: 0.11 nM | koff [6]: 8.1e-05 s⁻¹ | kon [6]: 760000 M⁻¹ s⁻¹ | Kd [7]: 2.87 nM | koff [7]: 0.000132 s⁻¹ | kon [7]: 46000 M⁻¹ s⁻¹ | Kd [11]: 3.5 nM | koff [11]: 0.0013 s⁻¹ | kon [11]: 370000 M⁻¹ s⁻¹
B2: PRO2670 (bispecific antibody)
chain 1: B1 chain 1 with L143R, V224T, L251Q
chain 2: B1 chain 2 with L143R, V224T, L251Q, L277R, L380Q, L409R, V490T, L513Q
notes: heterodimeric MATCH4, modified VH domains, optimized variant of PRO2590; also called MATCH4 with 55-38-D07-sc06(RTQ) / 19-04-A10-sc02(RTQ) diS / 28-21-D09-sc04(RTQ) / 55-38-D07-sc06(RTQ); RPO2670
